Test results: the DeepSol protein solubility set

Assay: soluble on expression in E. coli; label from the status in PepcDB or PDB records

Sequence | soluble on expression in E. coli
MGSDKIHHHHHHVNELSADVVILGGGLVGMTLAIGLAKAGISSHVVDNSDPAAQTAEGFDGRASAISTASWNLYANLGMADELAPKGCPIEAIAVTDAMKPGRIDFKPGEGDGSLGRMYANRDLRIAMYAAAAREEAITFHTNANVIHRERGEHGVSVTLADGRILKGRLLVGAEGRRSPTRDEAGFTPARWDYGHRAIIAGLTHEKPHGNVAWEVFYPAGPFALLPLLDDEDGSHRSALVWTVAEKDASAVLAMPEPMFLDEVSKRMHEIFGEIRLASPRSSYPLNFHHTARIVEQRLALVGDAAHGMHPIAGQGLNVGLRDVAALVEVLADGVRLGLDVGDAQLLARYERWRAADTFMVATATDVLTRLFGLPGRVPSAIRRLGMAGVQRMGPLKRWFMDEARGMSGDLPKLLRAA | not soluble
MGSDKIHHHHHHMILFEWGTYNALSTLKQAALLGTRITEIPPAVLSRRLPSGYYESYKKLGGEYFTSILAHGPYYSLSSEKGLKGHLSAIEKATLCGAEIYNYHLGKRVGDDLNYHLEVLKKFSEVNNEMIYSPEPATNIGEFGTLDELEELIKAAKEEDIKIIPSLQLENIFLNELGVYEKDDLDEAAEKADVDWWLKIFRRMDKISDYIMHFRFSQVIGLKYGKRFYKKRVPLGKGYPPVEPLTEALATYLVDNATRGGFKKVLFVYTGLPEVKYRDLIDLYAMIMKKSIDKLMSRESQVEYGDFYKVMSSEEEE | not soluble
MPRSDGFSPRKNLRRSARDHSRSYAGQCNEDFDDMYAPSSRRRSSGGVDGNGYTRSGRKINHNRYYEEEYHEAISSEEDERRYRTRRSSNSMTYRQQVMQAIDESKRNQKVPPAKRKRIYLSDEEEEDFAEAAHVENTVPERATRRSTRRRSSMHEELGVSEQEESPVRRTRKAAKRLGSEQPEENLAADDPLPMEGGGEIVLPIAEIDGMAEQENEDLIEKIGREEEEEGAEEDEQSGEKDPEEEEDDSSNAESSEESTAPRQYSLRRRQPVVQFNASEARENRRARLEHHRVANQNRHHRNRNGSRRRRSDSDSDSDDMVLPRPDKRQSRPHMHNRGERERGRFMPINMTEKELQSAQHILMDRMRKTDAGQGASDIDPMSVDSSVGFDQVGGLGHHIQSLKEVVLFPMLYPEVFEKFRINPPKGVVFYGPPGTGKTLVARALANECRRGANKVAFFMRKGADCLSKWVGESERQLRLLFDQAYAMRPSIIFFDEIDGLAPVRSSKQDQIHASIVSTLLALMDGLDGRGEVVVIGATNRLDTLDPALRRPGRFDRELRFSLPDLNARRQILDIHTSKWEENKPIPETLDAIAERTSGYCGADLKFLCTEAVLIGLRSRYPHIYMCSERLKLDVATIKITSEHFGHAMRRITPASRRDLTIPSRPLDERTSILLGDTVSNLISLRIPQGYRCVENAMATASSELEQVVRALEPNPTVPAIRLLLCGSEQLADGGQTSYVLPAILAKLDHLPVFSLSVSSLLTDGRPEEAFSNAIQSAMRASATGPCIMLLPSIDEWIKVIPVSVQHMLITCLESMTGFTPILFLSTLDTSFEDAPEYVTEIFRHANCITLNPSRRTIRQKYFEHVIEKINTPPKVFDPRLMRDRRFVEFVEPVDPDEAEDYYEIIETPICMQDIMEKLNNCEYNHADKFVADLILIQTNALEYNPSTTKDGKLIRQMANTLRDAIDDLIECELDESFVERIETVSRMLQDAGVTPTSDKLLTEIPKGFARKKAWSMTNSLAKEIEQWTSEREAENQKMLSKLGVAAPTLELVVVPVEDMKSEEGTSTSTDGVPASAGNKKKLLKKKKGQKKSKTGESEEHDEDSTVEDAGEDTIVENLEIKKNQETPNSEHDIEMKDASKDSTPSVQISIAEKELIVSKPATCELIQCCVEKSEGWSVSELERLSSVLSHTIERFRDEWNRENLPAQLTQIVREWQTADDSNNTIVNGTLNKSNGNLANGH | not soluble
MSLDNQPLIVIYDEGAALPKDIVTELNGVAPLVLVINSNEHTRERISYFSRFGHVVDGSDIARAVSELAHLNPAGIVTFSERALRLTATLAKHLNLPFHNLETVYRLTDKYKQRVALQEAGIESIRFYLINTVSDWEQAVEQVCLPAVLKPAYGGGSIDTYLIEDPQTGKSLVEKLLSNKQVGFDGGRSLVLEEFLQGRPSLPFGDYVSVESLVVNGEIKHINVTGKMPLSPPFREYGHIWPSVLSDSEQNQIYALTSSAINVLGVNRGITHTELKLTEQGPRIIEVNGRVGGGINEMAKISLNISLLEMAARLALGKMIDEGHHHHHH | not soluble
MDELMFFRGMAPDPTSYDRVFKFLIFGGKSVGKKTLLRSFCTEGDNESIWTSLTVDDEKVLIEATVSQKWEEGMSKEHDAIALVFSTTDVYSFEYTLELYNEIQKSTERIPLVFIENKIDIVEDSQMDKGLVEGEMRKKHKRLYRVSALKEFNVMHPFAYLIEKLTRQKKDLNANESVSENSLRL | not soluble
MALTSFLPAPTQLSQDQLEAEEKARSQRSRQTSLVSSRREPPPYGYRKGWIPRLLEDFGDGGAFPEIHVAQYPLDMGRKKKMSNALAIQVDSEGKIKYDAIARQGQSKDKVIYSKYTDLVPKEVMNADDPDLQRPDEEAIKEITEKTRVALEKSVSQKVAAAMPVRAADKLAPAQYIRYTPSQQGVAFNSGAKQRVIRMVEMQKDPMEPPRFKINKKIPRGPPSPPAPVMHSPSRKMTVKEQQEWKIPPCISNWKNAKGYTIPLDKRLAADGRGLQTVHINENFAKLAEALYIADRKAREAVEMRAQVERKMAQKEKEKHEEKLREMAQKARERRAGIKTHVEKEDGEARERDEIRHDRRKERQHDRNLSRAAPDKRSKLQRNENRDISEVIALGVPNPRTSNEVQYDQRLFNQSKGMDSGFAGGEDEIYNVYDQAWRGGKDMAQSIYRPSKNLDKDMYGDDLEARIKTNRFVPDKEFSGSDRRQRGREGPVQFEEDPFGLDKFLEEAKQHGGSKRPSDSSRPKEHEHEGKKRRKE | soluble
GGSHMKSYEIALIGNPNVGKSTIFNALTGENVYIGNWPGVTVEKKEGEFEYNGEKFKVVDLPGVYSLTANSIDEIIARDYIINEKPDLVVNIVDATALERNLYLTLQLMEMGANLLLALNKMDLAKSLGIEIDVDKLEKILGVKVVPLSAAKKMGIEELKKAISIAVKDKKTAEIKYPNFEPYIKKIT | soluble
MGHHHHHHSHMSHGHSHGGGGCRCAAEREEPPEQRGLAYGLYLRIDLERLQCLNESREGSGRGVFKPWEERTDRSKFVESDADEELLFNIPFTGNVKLKGIIIMGEDDDSHPSEMRLYKNIPQMSFDDTEREPDQTFSLNRDLTGELEYATKISRFSNVYHLSIHISKNFGADTTKVFYIGLRGEWTELRRHEVTICNYEASANPADHRVHQVTPQTHFIS | not soluble
MLSAFFKTAHCALRNMPIQTDLVGKWNFVSSENFDEYLKEVGVGWAIRTIATKTKPALEFAVNGDEWTMNSNSTFKNYTLKWKLGTASDEKTADGRDVSSVFSIENDHLVQIETGKGGGKDSRIERYIENGKLVIVCTCNGVKCTRVYEKAA | not soluble
MGSDKIHHHHHHMFDVCLFKKMNILYATCFLDVSGVTRLNYDILARLAGKNNIYVCETASDGRLTSKLENHFRDSFGEPFKLFRYPLQDRYRRFLEYLDSNAIDLVFNTHSLWVYEHIAKLKKDRSNLKVVDSLHVLEPYCFRGGYPDISANRYVHPFIDKSIVISEHLLSYIKRSYSVDPGKFIIIRNGVDTTRFKKDSSLKGIFRNELGVPANFPLIGYIGRFSRQKRPDVFLDVAKHLLGKLGEVYFYMAGDGDLLDKSKKLADSLGISNRVSFVAPRDDIHIVLNSTDMLVLTSSYEGAPLTILEALATGVPVVASDVGAISEYVGTPYVVQRQGRGAEVDQFAEAILRGLNDNYPSIFDREIFSLDYVADSYARVFYDTAVRTSTTQEN | not soluble
SQLNPTVMISGSSANNHRFDNLVAILNRQSTTHSLLRVQVNEDNSISYSGRIRPNDSQPYIVIGFQNNSDGYANIKRQAKWLEIAMKFLQKRYHFNHFNAFGHSNGGLDWTIYLEKYFNQKSSTIGTLMTVGSPFNFSEKSESNRTQMLTDLIKNRSKLPRDMTVYSIAGTETYNDDGIVPIESVLSGKYVFQKNVHSYTQITVSGNDSEHSDLPTNPQIVQLIQRDILDGRGQKQSSNPVFNNH | not soluble
